Assay results from patent publication US20190022198A1, “Individualized Immunomodulation Therapy for Neurodegenerative Disorders, CNS Injury and Age-Related Dementia” (Yeda Research and Development Co. Ltd., priority 2012, published 2019).

B1: IL-6: pro-inflammatory cytokine, purchased from PeproTech (protein, UniProt P08505 25-211, looked up)
Interleukin-6: FPTSQVRRGDFTEDTTPNRPVYTTSQVGGLITHVLWEIVEMRKELCNGNSDCMNNDDALAENNLKLPEIQRNDGCYQTGYNQEICLLKISSGLLEYHSYLEYMKNNLKDNKKDKARVLQRDTETLIHIFNQEVKDLHKIVLPTPISNALLTDKLESQKEWLRTKTIQFILKSLEEFLKVTLRSTRQT
B2: IL-10: Treg-derived cytokine, purchased from PeproTech (protein, UniProt P18893 19-178, looked up)
Interleukin-10: SRGQYSREDNNCTHFPVGQSHMLLELRTAFSQVKTFFQTKDQLDNILLTDSLMQDFKGYLGCQALSEMIQFYLVEVMPQAEKHGPEIKEHLNSLGEKLKTLRMRLRRCHRFLPCENKSKAVEQVKSDFNKLQDQGVYKAMNEFDIFINCIEAYMMIKMKS
B3: GM-CSF: cytokine purchased from PeproTech (protein, UniProt P01587 18-141, looked up)
Granulocyte-macrophage …: APTRSPITVTRPWKHVEAIKEALNLLDDMPVTLNEEVEVVSNEFSFKKLTCVQTRLKIFEQGLRGNFTKLKGALNMTASYYQTYCPPTPETDCETQVTTYADFIDSLKTFLTDIPFECKKPGQK
B4: IL-17: Th17-derived cytokine, purchased from PeproTech (protein, UniProt Q62386 26-158, looked up)
Interleukin-17A: AAIIPQSSACPNTEAKDFLQNVKVNLKVFNSLGAKVSSRRPSDYLNRSTSPWTLHRNEDPDRYPSVIWEAQCRHQRCVNAEGKLDHHMNSVLIQQEILVLKREPESCPFTFRVEKMLVGVGCTCVASIVRQAA
B5: IL-1β: pro-inflammatory cytokine, purchased from PeproTech (protein, UniProt P10749 118-269, looked up)
Interleukin-1 beta: VPIRQLHYRLRDEQQKSLVLSDPYELKALHLNGQNINQQVIFSMSFVQGEPSNDKIPVALGLKGKNLYLSCVMKDGTPTLQLESVDPKQYPKKKMEKRFVFNKIEVKSKVEFESAEFPNWYISTSQAEHKPVFLGNNSGQDIIDFTMESVSS

Tested on: CP epithelial cells
Assay: Primary culture of choroid plexus cells treated with cytokines, mRNA by real-time qPCR
Assay type: cell-based, mouse
Conditions: for expression of IFN-γ-receptor (IFN-γR) mRNA: TNF-α 100 ng/ml, IL-1β 100 ng/ml; for expression of IFN-γ-receptor (IFN-γR) mRNA / gene expression levels of trafficking molecules (ICAM-1, VCAM-1, CCL5, CXCL9, CXCL10, MHC-II): IL-6 10 ng/ml; for gene expression levels of trafficking molecules (ICAM-1, VCAM-1, CCL5, CXCL9, CXCL10, MHC-II): cultured CP cells from WT mice, 24 hours, IL-4 10 ng/ml; for expression of trafficking-related genes, escalating dosing of the cytokines: cultured CP cells, escalating dosing (data not shown)
Description: Mice were perfused from the left ventricle of the heart with PBS, and their CPs were removed under a dissecting microscope (Stemi DV4; Zeiss) in PBS into tubes containing 0.25% trypsin, and kept on ice. The tubes were shaken for 20 minutes at 37° C. and the tissue was dissociated by pipetting. The cell suspension was washed in culture medium for epithelial cells (DMEM/HAM's F12 (Invitrogen Corp)) supplemented with 10% FCS (Sigma-Aldrich), 1 mM 1-glutamine, 1 mM sodium pyruvate, 100 U/ml penicillin, […] streptomycin, 5 μg/ml Insulin, 20 μM Ara-C, 5 ng/ml sodium selenite, 10 ng/ml EGF, and cultured (˜250,000 cells/well) at 37° C., 5% CO2 in 24-well plates (Corning Incorporated) coated with poly-L-lysine (PLL; Sigma-Aldrich). After 24 hours, the medium was changed, and the cells were either left untreated, or treated with the indicated cytokines (all purchased from PeproTech): IFN-γ, IL-4, IL-10, IL-17A, GM-CSF, IL-6, IL-1β or TNF-α or their combinations for 24 h. Cell viability was quantified by Trypan blue staining after detachment of the cells with 0.25% trypsin for 10 minutes at 37° C. Neutralizing antibodies to TNF-R1 or TNF-R2 ([…], BioLegend) were added 1 h prior to the addition of TNF-α (100 ng/ml). RNA was isolated using the ZR RNA microprep kit (Zymo Research) according to the manufacturer's protocol.
Total RNA of the hippocampus was extracted with TRI reagent (MRC, Cincinnati, Ohio) and was purified from the lysates and spinal cord using the RNeasy kit (Qiagen, Hilden, Germany). Total RNA of the choroid plexus was extracted using the RNA MicroPrep kit (Zymo Research). mRNA (1 μg) was converted to cDNA using High Capacity cDNA Reverse Transcription Kit (Applied Biosystems). The expression of specific mRNAs was assayed using fluorescence based real-time quantitative PCR (qPCR). qPCR reactions were performed using Power SYBR Green PCR Master Mix (Applied Biosystems). Quantification reactions were performed in triplicates for each sample using the standard curve method. Glyceraldehyde 3-phosphate dehydrogenase (GAPDH), Peptidylprolyl isomerase A (PPIA), and hypoxanthine guanine phosphoribosyltransferase (HPRT) were chosen as reference genes according to their stability in the target tissue. The amplification cycles were 95° C. for 5 sec, 60° C. for 20 sec, and 72° C. for 15 sec. At the end of the assay, a melting curve was constructed to evaluate the specificity of the reaction. For some genes, the cDNA was pre-amplified in 14 PCR cycles with non-random PCR primers, thus increasing the sensitivity of the subsequent real-time PCR analysis (PreAmp Master Mix Kit, Applied Biosystems). For these genes, expression was determined using TaqMan Real-Time PCR, according to manufacturer's instructions (Applied Biosystems). All quantitative real-time PCR reactions were performed and analyzed using the 7500 Real-Time PCR System (Applied Biosystems). The following TaqMan probes were used: Mm02342430_g1 (ppia), Mm00446968_m1 (hprt), Mm00445260_m1 (il-4), Mm01168134_m1 (ifn-γ), Mm00441238_m1 (ccl11), Mm00475988_m1 (arg-1). In addition, the following primers were used: […]

[1] = IFN-γ 100 ng/ml, IL-17 100 ng/ml

Row | Molecule | expression of IFN-γ-receptor (IFN-γR) mRNA (CP epithelial cells, 24 h) | gene expression levels of trafficking molecules (ICAM-1, VCAM-1, CCL5, CXCL9, CXCL10, MHC-II) [1] | expression of trafficking-related genes, escalating dosing of the cytokines | expression of the chemokine CCL20 (CP epithelial cells, IL-17 100 ng/ml, IFN-γ 100 ng/ml, 24 h)
1 | B1 | not | neither IL-17, nor its induced cytokine IL-6, had any effect | None of the tested cytokines, other than IFN-γ, had any effect | –
2 | B2 | – | – | None of the tested cytokines, other than IFN-γ, had any effect | –
3 | B3 | – | – | None of the tested cytokines, other than IFN-γ, had any effect | –
4 | B4 | – | failed to activate the choroid plexus for trafficking | – | elevated the expression of the chemokine CCL20
5 | B5 | elevated the expression of IFN-γ-receptor | – | – | –
